Assay results from patent US20250034227A1.

What was measured:
[1] = target: HLA-A*02 tetramers with the 9 similar peptides (SimPeps, SEQ ID NOs: 59-67); assay: yeast display, 9 similar peptides, 10 nM HLA-A*02 tetramer
[2] = target: HLA-A*02 tetramers with the 9 similar peptides (SimPeps, SEQ ID NOs: 59-67); assay: yeast display, flow cytometry, SimPep tetramer mix, 25 nM each

| similar peptide binding, % positive cells [1] [%] | yeast cells stained positive [2] [%] | Binder |
| --- | --- | --- |
| 0 |  | scTCR CL-21753 (TCR) EDVEQSSFLSVREGDSAVINCTYTDASSTYFYWYKQEPGAGLQLLTYIFSNMDMKQDQRLTVLLNKKDKHLSLRIADTQTGDSAIYFCAVKDNARLMFGDGTQLVVKPGGGGSGGGGSGGGGSGGGGSGGGGSAVISQKPSRDIVQRGNSVTIQCQVDRPVTMMFWYRQQPGQSLTLIATAYDEGSATYESGFVIDKFPISRPNLTFSTLTVSNMSPEDSSIYLCSVLGAYGYTFGSGTRLTVV |
|  | 0 | scTCR R76P1E1S with matured CDRb1 RPVTM (TCR) EDVEQSSFLSVREGDSAVINCTYTDSSSTYFYWYKQEPGAGLQLLTYIFSNMDMKQDQRLTVLLNKKDKHLSLRIADTQTGDSAIYFCAVKDNARLMFGDGTQLVVKPGGGGSGGGGSGGGGSGGGGSGGGGSGAVISQKPSRDIVQRGNSVTIQCQVDRPVTMMFWYRQQPGQSLTLIATANQGSEATYESGFVIDKFPISRPNLTFSTLTVSNMSPEDSSIYLCSVLGAYGYTFGSGTRLTVV |
